This experiment deals with T1, I53-50A.
T1 construct: Trimeric nanostructure component without antigen, used in the 33% and 66% valency particles; also called I53-50A trimers
T1 chain: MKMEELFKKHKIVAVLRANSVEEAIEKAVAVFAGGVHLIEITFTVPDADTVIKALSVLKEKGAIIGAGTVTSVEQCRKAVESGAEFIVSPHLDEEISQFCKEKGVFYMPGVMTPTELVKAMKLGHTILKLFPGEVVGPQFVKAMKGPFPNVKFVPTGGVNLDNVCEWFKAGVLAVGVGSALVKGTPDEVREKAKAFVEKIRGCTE
Briefly: in vitro co-assembly of partial valency particles.

We go through one molecule from patent US20200397886A1 (University of Washington, published 2020).

B1: I53-50B.4PosT1 (designed binder)
chain: MNQHSHKDHETVRIAVVRARWHAEIVDACVSAFEAAMRDIGGDRFAVDVFDVPGAYEIPLHARTLAETGRYGAVLGTAFVVNGGIYRHEFVASAVINGMMNVQLNTGVPVLSAVLTPHNYDKSKAHTLLFLALFAVKGMEAARACVEILAAREKIAA
notes: Pentameric nanostructure component expressed in E. coli; the N-terminal methionine is said to be optional; also called I53-50B.4PT1; I53-50B.4PT
Take B1: the binding result is listed as “binds”.
